# Entries after “also recorded” stand apart in the source; their conditions may differ.
# T1: S100b (Homo sapiens, UniProt P04271)
# T1 sequence (P04271 1-92): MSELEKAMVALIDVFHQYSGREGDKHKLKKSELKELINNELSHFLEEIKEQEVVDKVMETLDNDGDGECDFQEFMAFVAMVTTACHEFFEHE
# B1: TTP-4000: RAGE fusion protein: V and C1 domains of human RAGE (amino acids 1-251) linked to hinge-less CH2 and CH3 of human IgG1; SEQ ID NO: 16/18 (protein)
# chain 1: MAAGTAVGAWVLVLSLWGAVVGAQNITARIGEPLVLKCKGAPKKPPQRLEWKLNTGRTEAWKVLSPQGGGPWDSVARVLPNGSLFLPAVGIQDEGIFRCQAMNRNGKETKSNYRVRVYQIPGKPEIVDSASELTAGVPNKVGTCVSEGSYPAGTLSWHLDGKPLVPNEKGVSVKEQTRRHPETGLFTLQSELMVTPARGGDPRPTFSCSFSPGLPRHRALRTAPIQPRVWEPVPLEEVQLVVEPEGGAVAPPSVFLFPPKPKDTLMISRTPEVTCVVVDVSHEDPEVKFNWYVDGVEVHNAKTKPREEQYNSTYRVVSVLTVLHQDWLNGKEYKCKVSNKALPAPIEKTISKAKGQPREPQVYTLPPSRDELTKNQVSLTCLVKGFYPSDIAVEWESNGQPENNYKTTPPVLDSDGSFFLYSKLTVDKSRWQQGNVFSCSVMHEALHNHYTQKSLSLSPGK
# chain 2: ENITARIGEPLVLKCKGAPKKPPQRLEWKLNTGRTEAWKVLSPQGGGPWDSVARVLPNGSLFLPAVGIQDEGIFRCQAMNRNGKETKSNYRVRVYQIPGKPEIVDSASELTAGVPNKVGTCVSEGSYPAGTLSWHLDGKPLVPNEKGVSVKEQTRRHPETGLFTLQSELMVTPARGGDPRPTFSCSFSPGLPRHRALRTAPIQPRVWEPVPLEEVQLVVEPEGGAVAPPSVFLFPPKPKDTLMISRTPEVTCVVVDVSHEDPEVKFNWYVDGVEVHNAKTKPREEQYNSTYRVVSVLTVLHQDWLNGKEYKCKVSNKALPAPIEKTISKAKGQPREPQVYTLPPSRDELTKNQVSLTCLVKGFYPSDIAVEWESNGQPENNYKTTPPVLDSDGSFFLYSKLTVDKSRWQQGNVFSCSVMHEALHNHYTQKSLSLSPGK
# modifications: synthetic four domain RAGE-Fc IgG fusion protein; synthetic four domain RAGE-Fc IgG fusion protein having signal sequence removed
# Tests used:
# [1] = molecular target: T2, amyloid-beta (Amyloid Beta (1-40)) (Homo sapiens, UniProt P05067); assay: In vitro ligand binding assay (ELISA), immobilized amyloid-beta; details: ligand 5 micrograms per well; dilutions of initial fusion protein solution; FIG. 7
# T2 construct: Amyloid Beta (1-40) from Biosource; purchased Biosource
# Experimental: (§1) For example, the fusion protein may be used in a binding assay to identify potential ligands that bind to the non-immunoglobulin protein. In one example embodiment of such a binding assay, a known ligand may coated onto a solid substrate (e.g., Maxisorb plates) at a biologically relevant concentration (e.g., about 5 micrograms per well), where each well contains a total volume of about 100 microliters (μL). The plates may be incubated at 4° C. overnight to allow the ligand to bind to the substrate. Alternatively, shorter incubation periods at higher temperature (e.g., room temperature) may be used. After a period of time to allow for the ligand to bind to the substrate, the assay wells may be aspirated and a blocking buffer (e.g., 1% BSA in 50 mM imidizole buffer, pH 7.2) may be added to block nonspecific binding. […] The fusion protein bound to the immobilized ligand may be detected in a variety of ways. […] The bound complex may be detected by adding a substrate for the secondary antibody complex, e.g., the alkaline phosphatase substrate, para-nitrophenylphosphate (PNPP), and measuring conversion of PNPP to para-nitrophenol (PNP) as an increase in absorbance at 405 nm. […] In the absence of ligand (i.e., coating with only BSA) there was no increase in absorbance. The binding assay of the present invention may be used to quantify ligand binding. […]
# [2] = molecular target: T1, S100b; assay: In vitro ligand binding assay (ELISA), immobilized S100b; details: ligand 5 micrograms per well; dilutions of initial fusion protein solution; FIG. 7
# Experimental: as §1
# [3] = system: Zucker diabetic rats, balloon injury of left common carotid artery; assay: Diabetic rat model of restenosis (balloon injury of left common carotid artery); type: in vivo; details: for Intimal area / Medial area: IP, 21 days, mean±SD
# Experimental: For example, fusion proteins of the present invention comprising a RAGE ligand binding site have been used in the treatment of diabetes related pathology. […] Use of the RAGE fusion proteins in the treatment of diabetes related pathology is illustrated in Table 1.
# In these experiments, balloon injury of left common carotid artery was performed in Zucker diabetic and nondiabetic rats using standard procedure. […] A maintenance dose was delivered every other day until day 7 after injury (i.e., at day 1, 3, 5 and 7 after injury). The maintenance dose was high=1 mg/animal for one group, or low=0.3 mg/animal for the second group. To measure vascular smooth muscle cell (VSMC) proliferation, animals were sacrificed at 4 days and 21 days after injury.
# For the measurement of cell proliferation, 4 day animals received intraperitoneal injection of bromodeoxyuridine (BrDdU) 50 mg/kg at 18, 12, and 2 hours before euthanasia. After sacrifice, the entire left and right carotid arteries were harvested. Specimens were stored in Histochoice for at least 24 hours before embedding. Assessment of VSMC proliferation was performed using mouse anti-BrdU monoclonal antibody. A fluorescence labeled goat anti-mouse secondary antibody was applied. The number of BrdU-positive nuclei per section were counted by two observers blinded to the treatment regimens.
# The remaining rats were sacrificed at 21 days for morphometric analysis. Morphometric analyses were performed by an observer blinded to the study groups, using computerized digital microscopic planimetry software Image-Pro Plus on serial sections, ([…]) carotid arteries stained by Van Gieson staining All data were expressed as mean±SD. Statistical analysis was performed with use of SPSS software. Continuous variables were compared using unpaired t tests. A values of P≦0.05 was considered to be statistically significant.
# [4] = system: male C57BL/6 mice, cerebral ischemia/reperfusion; assay: Animal model of stroke (ischemia and reperfusion, infarct volume); type: in vivo; details: mouse stroke model
# Experimental: In this model, the middle carotid artery of a mouse is ligated and then reperfused to form an infarct.
# In this model, the middle carotid artery of a mouse was ligated for 1 hour followed by 23 hours of reperfusion at which point the mice were sacrificed and the area of the infarct in the brain was assessed.
# Mice were injected intraperitoneally, 1 hour after the initiation of ischemia. Mice were subjected to one hour of cerebral ischemia followed by 24 hours of reperfusion. To induce ischemia, each mouse was anesthetized and body temperature was maintained at 36-37° C. by external warming. The left common carotid artery (CCA) was exposed through a midline incision in the neck. […] After the nylon suture had been in place for 1 hour, the animal was re-anesthetized, rectal temperature was recorded and the suture was removed and the incision closed.
# Infarct volume was determined by anesthetizing the animals with an intraperitoneal injection of sodium pentobarbital (50 mg/kg) and then removing the brains. […] The infarct area in each section was determined with a computer-assisted image analysis system, consisting of a Power Macintosh computer equipped with a Quick Capture frame grabber card, Hitachi CCD camera mounted on a camera stand. […] The images were captured and the total area of infarct was determined over the sections. […] The results are expressed as the mean±standard deviation (SD). […]
# [5] = system: Fc receptor; assay: Fc receptor activation: TNF-α secretion from THP-1 cells; details: well precoated with 10 ug/well heat aggregated protein, 24 hours, FIG. 12
# Experimental: Fc receptor activation was measured by measuring TNF-α secretion from THP-1 cells that express the Fc receptor. […] Fc stimulation results in TNF-α secretion. The amount of TNF-α was measured by an Enzyme Linked Immunoabsorbent Assay (ELISA).
# Thus, in this assay, the myeloid cell line, THP-1 (ATTC #TIB-202) was maintained in RPMI-1640 media supplemented with 10% fetal bovine serum per ATCC instructions. […] The amount of TNF-alpha secreted by the THP-1 cells was measured in supernatants collected from 24 hours cultures of cells in the treated wells using a commercially available TNF ELISA kit (R&D Systems, Minneapolis, Minn. #DTA00C) per instructions.
# [6] = High dose 1.0 mg/animal qod × 4, loading dose 3 mg/animal
# [7] = Low dose 0.3 mg/animal qod × 4, loading dose 3 mg/animal
# T2 sequence (P05067 672-711 limits assumed): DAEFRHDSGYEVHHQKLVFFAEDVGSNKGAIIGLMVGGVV
molecule,measurement,setting,value
B1,binding to immobilized amyloid-beta (increase in absorbance at 405 nm),[1],able to bind; also recorded: specifically interact
same,binding to immobilized S100b (increase in absorbance at 405 nm),[2],able to bind; also recorded: specifically interact
same,"vascular smooth muscle cell proliferation (BrdU-positive nuclei), in words","[3]; 4 days after injury, dose-responsive",significantly reduced
same,Intimal area,[3]; [6],0.16 ± 0.02 mm^2
same,Medial area,[3]; [6],0.11 ± 0.01 mm^2
same,Intimal area,[3]; [7],0.18 ± 0.04 mm^2
same,Medial area,[3]; [7],0.11 ± 0.02 mm^2
same,"reduction in infarct volume / area of infarct compared to sRAGE, in words",[4],significantly greater reduction in infarct volume; also recorded: more efficacious than sRAGE
same,TNF generated (Fc receptor activation),[5],less than 2 ng/well
